From PMC10268213 (2023) come the findings set out here.

For test [1], the target named is T1, SARS-CoV-2 receptor-binding domain (RBD) (SARS-CoV-2, UniProt P0DTC2). Description: SPR.
The target of test [2] is T1, SARS-CoV-2 receptor-binding domain (RBD). Description: SPR. This is another data set of the same source.

Residue numbers refer to the chain shown, from its start.

B1: LM18 nanobody (VHH)
VHH: EVQLQESGGGLVQPGGSLRLSCAASGFTFSSYALGWYRQAPGKEREWVCAISGSGGSTYYADSVKGRFTCSRDNSKNTLYLQMNSLKPEDTAVYYCARVYQFYGARDYGYPYDFDYWGQGTQVTVSS
The molecule B1 showed a Kd in test [1] of 0.391 µM. The molecule further came in with a koff in test [2] of 0.0944 s⁻¹.

B2: Nb-C4-240 nanobody (VHH)
VHH: EVQLQESGGGLVQPGGSLRLSCAASGFTFSSYAMGWYRQAPGKEREWVCAISGSGGSTYYADSVKGRFTCSRDNSKNTLYLQMNSLKPEDTAVYYCARVVSYYDQTGFVYWQSYDYWGQGTQVTVSS
B2 displayed a Kd in test [1] of 1.06 µM. Further, in test [2], the koff was 0.969 s⁻¹.

B3: Nb-C2-136 nanobody (VHH)
VHH: EVQLQESGGGLVQPGGSLRLSCAASGFTFSSYAMGWYRQAPGKEREWVCAISGSGGSTYYADSVKGRFTCSRDNSKNTLYLQMNSLKPEDTAVYYCARYGGPYDPTDSTYAFDYWGQGTQVTVSS
The molecule B3 yielded a Kd in test [1] of 0.382 µM. Moreover, the koff in test [2] worked out at 0.032 s⁻¹.

B4: Nb-C4-225 nanobody (VHH)
VHH: EVQLQESGGGLVQPGGSLRLSCAASGFTFSSYAMGWYRQAPGKEREWVCAISGSGGSTYYADSVKGRFTCSRDNSKNTLYLQMNSLKPEDTAVYYCARGSFYYTYGGSVGFDAFDYWGQGTQVTVSS
The molecule B4 registered an equilibrium dissociation constant (Kd) in test [1] of 0.143 µM. For the same molecule, the koff in test [2] was determined as 0.0057 s⁻¹.

B5: Nb-C4-255 nanobody (VHH)
VHH: B4 VHH with G99Q, S100A, F101W, T104S, Y105P, G106Y, S108G, V109P, G110E, D112E
In turn, B5 gave a Kd in test [1] of 2.95 µM. Moreover, the koff in test [2] came to 0.295 s⁻¹.
